Results reported in patent US20100227772.
Read-outs that look alike come from different tables or passages of the source.

System: Antennapedia homeodomain (YPWM motif + homeodomain, Antp residues 297-364 in plasmid pAop3)
Conditions: FCCS

Row | Substance | Kd (average of 10 saturation curves, single curve of FIG. 2 gives 6.3 nM) | Kd (average of 3 saturation curves, single curve of FIG. 3 gives 8.6 nM)
1 | HB1 (36 bp) | 3.6 nM | –
2 | BS2 (16 bp) | – | 5.1 nM
